This series is described as follows: label from the status in PepcDB records.
On to “MTRNGHERAKPLRPGDPTELGAYRIVGRLGRGGMGTVYLGKDTAERLVAIKLIRPDLSEDPAFRQRFAREVAAARRVARFSTAAVLDAQLEGDPLFIVSEYVAGPNLAEAIQADGPMYGGTLESLAMGVAAALTAIHGAGVIHRDLKPANVLLSSVGPKVIDFGIARALDDDTAVTRSSQLMGTPAYLAPELIAGEPPTPMSDIFSWGCLVAYAGTGRAPFDAPTVPAVLHQIVAGQPNLSGLDPALRELVESALDKFPDNRPTAQQLLSRLVGQEEMSLDAVHETVVRSWTPPATSRPEAVPSGPNPAAVPAQVGAAAAAPPTQPGTTPPGGQPSATPSAGHPGATPPAGQPAAAPPFPEHSPQTPPWAAPTPPGGNGTEQKTRGTRFSPAIAIAGGSAVALLAGAVIGGLVLFRSPEVPEGMQVYADDFTHQDGWAGYDFDPENTFSWSGYYQGGYALSADGDTRTSTVSVAPPAGLPEQVRVSATTQVVSGPDYGTYGLHCFYNDDGDNVTYYSATVRVDGSAAQIRRHGGEQGSTHLEEVTAKPVSGFLTPSRDAEEAPVNTFDFTCELDPEADTVTLNLWLNGEHVLEAVDTNPLPYDGEDAPQAGMLAGRGIGGGDNIVVVFDDFAVYQLDGGQRERS”, for which the protein production entry is on record as “failed”.
On to “MTRPEASGPPDATRLGHLLGPHGVQGGIKLYVLGDPAQVLALKRVYVESRGWLSLRRAEGMPPNLVLYLAGVSSREGAEELRGLQVYATDAELPDLEEGTFYYHDLRGLEVYGAGGERLGTVSDVMDAGHQDLLVVDYGGGTSFVPLQAPYVEVPLAGGKPGAVHLTADAPAGLIGPEPGEEDGAAESLEHHHHHH”, for which the protein production result is on record as “not failed”.
The result for “MTRPYSLTRYAWLSIFVAIFTMAVKAAAYRVTGSVGLLSDALESIVNLSAAVVALAMLRLSAQPADARHHFGHGKAEYFASGFEGVLILVAAGAILFAAWDRYLHPHELAELDLGLGLSVAAAVVNGLVGWLLVSVGRKAGSIVLEADGKHLLTDVWTSIGVVCGVAAAGLTGWHDFDPGVAALVGLNIVWTGAGLIRRTIAGLLDASLPLEENLKIRGILETFRERGVGFHDLRTRQSGAHRFMSVHLLVPGAWTVQAAHDLAEEIEAELGGALANLTVVTHIEPIEDPASFGHHEPFPETAPEVTNPHPPQTARPLRLKIASVAGAALLLGGGVAGVVVSGVWLDLALAAVLFGFVLILAVQRRGGRQRKAGRQ” reads “failed”.
“MTRQRNREGLEFTAANAQAVEAFDETVKRYLQFHGDIGGALKATFAHDAQMPMALILRGYFYLLMGLRPLADKAAQLAAGLQPGRAALTEREQRHLDALACWSRDSLQAATEHWERIARAHPRDILAVKMAHFGYFYLGRSARIRDGIAQAIDSWSEDDALYPYMLSMMAFGQVEAGELARGEASGRRALELTPHDPWAVHAVAHALEPTDRKADALAWIARHERHWSEANNFRHHIHWHRALIHLEQGDAQAALDWYDRTVFAADSVEYLDVCNEASLLMRLELSGVDVGRRWEAVAQKSAARIDDQVMGFADVHYAMALCSSANPEHRQQAQALAERLERYSQGGTDNAQAYRQAVVPIVGALLAFRQGRYRESADALLACADVAHAAGGSHDQRDVYEYLTAEALFRAAPAHPDTIAYLARRSFRAPHNPHNWRLYLQSLEQSGQDRTLAAATARRQAAAHATA”: the protein production entry was “failed”.
The value for “MTRSANPSLFLPLRAAWLALMRFQAKSGFVMSSHVAMSMMMALFPFILFTVALAGSLSQDLVTDDLIQLIFGTWPEQVATPIVAELKAVLAGANSRVMTVGGVLAVYFASNGVDAVREAMSRAYHDAETRPFWKTRLLCIAIVVGGGAIVLAVAAFEVVMPIYTRLVTDALPGAAPDWLSVERLSWIFVVAMPAGAVLACHALLPAGRHPLRRILPGVVLTLVLWAGCGWGFSLYIANFASYSTTYAGLAGAMAALIFLYLNAAILILGAEFNGALMDLSGGPD” was “not failed”; that for “MTRSEAQGRLTGLAPVSVIDIGSNSVRLVVYEGLSRAPAVLFNEKVLCGLGKGLALTGRMHEEGVTRALMALRRFHVLSEQAQAQKLYVLATAAAREAENGPDFIREAEAILGCEIEVLSGEKEALYSAYGVISGFYQPDGIAGDLGGGSLELIDIKDKSCGEGITLPLGGLRLSEQSDGSLEKAATIARKHVKSFAKLLAAGEGRTFYAVGGTWRNIAKLHMEISGYPLHMMQGYELPLEEMLNFLEEVIVSRDSKDPAWQAVSKNRRSLLPFGAIAMREVLRAMKPAKIAFSAQGVREGYLYSLLTEAERESDPLLVAADELAILRARSPEHARELADWSGRTFPVFGIDETEEESRYRQAACLLADISWRAHPDYRGLQALNIIAHSSFVAITHPGRAYIALANYYRFEGLNDNGTTEPLAAMAGERLQELGKLLGGLLRVVYLFSASMPGVVDHLKFRKSDNPDIDLEFVVPHDYCDFAGERLDGRLQQLAKLTGKRLAFVFE” was “not failed”; that for “MTRSRRGALARSSEGGPFPTADPVADRALCGWRVRSVIDLPELPLWTRDDRLPDVTIAFGRVTPVESASPGMNWHVVGEGRFRFTVASVGSYRISRGRVITIDPQAGVVASAVRQYLLGTAFGVLCHQRGLLPLHASCVAINGRAVAIAGASGAGKSSLAAALVRLGYPLLGDDVCVIDASEINAPHVLPAIPRLKLWRDVLDTFGLIVDPAARILEGIDKYQAQALADRPPPPPPQVPLPLGVVYYLDQAESPDDEGFHAIRGAERAAALAGAVYRRKMGLAMGLLPQIFTATMTVGALVPGHRLLRHGDLSGLDALARSVAARQEGRGLEHHHHHH” was “failed”.
As to “MTRTTGTRTTGILADGAIRALFAGDKLKSEADLDVDQVQPASLDLRLGSKAYRVRASFMPGPGTRVIDKLNRFSLHEVDLSQGAVLETGCVYIVPLMESLALPADMSASANPKSSTGRLDIFTRVMTDNAQEFDKIPAGYTGPLYLEISPRTFPIVVRRGSRLSQIRFRIGHALLNESEVLKLHETETLVASENPNVTGGGIALSIDLKGFGENGLIGYRGKHHTAVVDVDKKAQHDVLDFWEPLFARGRAELILDPDEFYILVSREAVHVPPLYAAEMTPFDPLVGEFRVHYAGFFDPGFGHAQAGGTGSRAVLEVRSHEVPFILEHGQIVGRLVYEHMLEKPEGLYGTGLGSNYQAQGLKLSKHFRAE”, the protein production result is “not failed”.
The result for “MTRVKSKLDEELSSPWFYTVCTMGGMLSAGTTHLAITPLDVLKVNMQVNPVKYNSIPSGFSTLLREHGHSYLWRGWSGKLLGYGVQGGCRFGLYEYFKTLYSDVLPNHNRTSIYFLSSASAQIFADMALCPFEAIKVRVQTQPMFAKGLLDGFPRVYRSEGLAGFHRGLFPLWCRNLPFSMVMFSTFEQSVEFIYQKIIQKRKQDCSKAQQLGVTCLAGYTAGAVGTIISNPADVVLSSLYNNKAKNVLQAVRNIGFVGLFTRSLPVRITIVGPVITLQWFFYDAIKVLSGFPTSGGVKKPVDAAKLSV” reads “failed”.
The value for “MTRVLYCGDTSLETAAGYLAGLMTSWQWEFDYIPSHVGLDVGELLAKQDLVILSDYPAERMTAQAIDQLVTMVKAGCGLVMLGGWESYHGLGGNWDQTLLAEVLPVDIKSADDRINFDQPTLAIPAAINSVSHPILQNLPWEDRPPTIGGLNRIAAKAKAQTLLMARVWRPTFSLEHGKTTWEHADHHPLLVVGEAGTGRVAAFASDVAPHWVGGLVDWGDERVTSQAPGAGAIEVGNLYSQFFRQMLEWVAKSTR” was “not failed”; that for “MTSAAQLTALLHLASPALPVGAFSYSQGLEAAVEARHVHDEASAARWIAEGLAVLAACEAPLWLLQYADWQAGRLDAVAERDGWFLATRETRELRLETAQMGWSLARLIAQMGWGAPAMRDALAARAAITFPTAFAAAAVALGIEARDGLTAYSFAWVENQVAAAVKAIPLGQAAGQRILFGLHAAVGQAAEDAARRAACHPPELSTFSPGLGVLSARHETQYSRLFRSLEHHHHHH” was “failed”; that for “MTSAQAVSEGTGEAAAQAISLRTWVAVLGSVVGCFMAGMNVHVTNASLPDVRGSLGATFEEGSWITTAYLVAEIIIIPMTGWLVSVFSMRRVLMVGTAGFVLFSIACSLAPNIHSLIFARVLQGAFGGVLIPLSFQLIVTELPAARHPMGMALFAVANNVAQAAGPSLGGWLTDAYSWRWIFYLQVPPGLLLLAAIGWSVRPQPMVLAKLRQGDWGGIASMAVGLSALQIMLEEGGRYDWFASSFISHCAILATVGLLAFVAIELRREQPLINLRLLGRYNFGIASLMQFTFGAVVFGVVFLVPNYFAQIHGYNARQIGLMMIPYGLIQFVMSFATPRLMRWTSARTIIIAGFAITGIGCLMNIHLNPDASVNVIVPSLVVRGIGQSLVVVALGVMAIQGLEKDQVGSASGLFSMVRNVGGAIGIALSSQIVVEREKLHAQRIGESVSLFAQATQERLVELVRLLAQAPVEYATALHSAALAPLRQQALGMVDKVLHRDALLLAYSDAFLLAGLAMLLCVVAGVLLRRA” was “failed”.

Source of the values: a protein production outcome set (Wang et al. 2014).
